Source: patent publication US20210147504A1 (Bayer, published 2021)
Positions count from the first letter of the chain named.

T1: rat ANP receptor (NPR-A) (rat, UniProt P18910 29-1057)
T1 sequence (looked up): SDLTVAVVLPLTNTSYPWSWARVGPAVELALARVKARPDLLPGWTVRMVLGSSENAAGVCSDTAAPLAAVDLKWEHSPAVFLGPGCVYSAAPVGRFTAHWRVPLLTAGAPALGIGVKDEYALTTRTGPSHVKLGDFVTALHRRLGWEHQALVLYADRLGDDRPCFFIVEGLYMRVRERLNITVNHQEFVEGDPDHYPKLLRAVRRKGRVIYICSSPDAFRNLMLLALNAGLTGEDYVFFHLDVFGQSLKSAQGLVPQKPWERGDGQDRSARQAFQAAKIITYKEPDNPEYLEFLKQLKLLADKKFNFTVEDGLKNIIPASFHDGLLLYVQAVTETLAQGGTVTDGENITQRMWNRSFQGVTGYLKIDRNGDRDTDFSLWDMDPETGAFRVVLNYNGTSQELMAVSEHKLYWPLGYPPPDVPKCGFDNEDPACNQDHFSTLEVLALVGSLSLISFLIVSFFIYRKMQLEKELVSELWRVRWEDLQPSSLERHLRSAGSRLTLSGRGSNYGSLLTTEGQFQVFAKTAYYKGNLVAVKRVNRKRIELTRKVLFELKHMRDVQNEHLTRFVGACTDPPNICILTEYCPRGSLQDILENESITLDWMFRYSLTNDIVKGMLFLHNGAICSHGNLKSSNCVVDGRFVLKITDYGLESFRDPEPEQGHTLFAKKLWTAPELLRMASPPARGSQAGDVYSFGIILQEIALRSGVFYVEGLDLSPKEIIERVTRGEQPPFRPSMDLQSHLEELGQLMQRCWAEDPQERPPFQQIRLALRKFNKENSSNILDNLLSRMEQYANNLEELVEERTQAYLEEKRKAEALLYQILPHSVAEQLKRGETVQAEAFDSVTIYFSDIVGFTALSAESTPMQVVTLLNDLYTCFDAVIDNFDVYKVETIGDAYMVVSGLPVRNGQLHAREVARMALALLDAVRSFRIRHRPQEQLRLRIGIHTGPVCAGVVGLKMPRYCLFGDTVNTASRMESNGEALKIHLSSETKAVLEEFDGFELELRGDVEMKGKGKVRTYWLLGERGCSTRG

T2: rat CNP receptor (NPR-B) (rat, UniProt P16067 17-1047)
T2 sequence (looked up): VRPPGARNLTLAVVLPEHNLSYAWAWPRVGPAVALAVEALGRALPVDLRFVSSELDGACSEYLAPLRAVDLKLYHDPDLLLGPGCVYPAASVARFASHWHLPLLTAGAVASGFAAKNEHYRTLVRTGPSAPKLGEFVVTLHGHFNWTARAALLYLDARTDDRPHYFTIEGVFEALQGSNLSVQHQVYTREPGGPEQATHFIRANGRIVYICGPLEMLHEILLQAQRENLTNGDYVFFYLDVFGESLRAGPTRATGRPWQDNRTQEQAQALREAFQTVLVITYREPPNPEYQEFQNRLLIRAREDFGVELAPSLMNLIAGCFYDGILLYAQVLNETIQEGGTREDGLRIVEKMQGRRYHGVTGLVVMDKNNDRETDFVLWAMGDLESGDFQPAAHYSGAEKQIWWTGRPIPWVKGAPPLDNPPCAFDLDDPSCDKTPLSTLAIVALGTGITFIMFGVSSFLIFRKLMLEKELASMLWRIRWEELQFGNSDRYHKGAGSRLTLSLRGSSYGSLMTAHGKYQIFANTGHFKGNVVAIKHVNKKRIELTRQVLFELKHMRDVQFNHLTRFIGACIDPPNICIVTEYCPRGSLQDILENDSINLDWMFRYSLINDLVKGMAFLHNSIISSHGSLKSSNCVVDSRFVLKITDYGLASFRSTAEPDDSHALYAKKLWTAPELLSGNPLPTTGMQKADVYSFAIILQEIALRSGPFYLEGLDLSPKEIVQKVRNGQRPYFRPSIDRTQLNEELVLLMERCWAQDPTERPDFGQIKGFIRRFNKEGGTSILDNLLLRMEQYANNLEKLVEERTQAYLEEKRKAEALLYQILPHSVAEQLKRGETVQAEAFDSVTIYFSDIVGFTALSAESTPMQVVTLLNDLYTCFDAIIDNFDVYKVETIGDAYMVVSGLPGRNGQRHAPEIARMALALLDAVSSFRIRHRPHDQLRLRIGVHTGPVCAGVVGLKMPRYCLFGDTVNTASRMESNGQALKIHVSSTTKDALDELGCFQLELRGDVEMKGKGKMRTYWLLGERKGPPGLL

T3: human NPRA (hNPRA) (human, UniProt P16066 33-1061)
T3 sequence (looked up): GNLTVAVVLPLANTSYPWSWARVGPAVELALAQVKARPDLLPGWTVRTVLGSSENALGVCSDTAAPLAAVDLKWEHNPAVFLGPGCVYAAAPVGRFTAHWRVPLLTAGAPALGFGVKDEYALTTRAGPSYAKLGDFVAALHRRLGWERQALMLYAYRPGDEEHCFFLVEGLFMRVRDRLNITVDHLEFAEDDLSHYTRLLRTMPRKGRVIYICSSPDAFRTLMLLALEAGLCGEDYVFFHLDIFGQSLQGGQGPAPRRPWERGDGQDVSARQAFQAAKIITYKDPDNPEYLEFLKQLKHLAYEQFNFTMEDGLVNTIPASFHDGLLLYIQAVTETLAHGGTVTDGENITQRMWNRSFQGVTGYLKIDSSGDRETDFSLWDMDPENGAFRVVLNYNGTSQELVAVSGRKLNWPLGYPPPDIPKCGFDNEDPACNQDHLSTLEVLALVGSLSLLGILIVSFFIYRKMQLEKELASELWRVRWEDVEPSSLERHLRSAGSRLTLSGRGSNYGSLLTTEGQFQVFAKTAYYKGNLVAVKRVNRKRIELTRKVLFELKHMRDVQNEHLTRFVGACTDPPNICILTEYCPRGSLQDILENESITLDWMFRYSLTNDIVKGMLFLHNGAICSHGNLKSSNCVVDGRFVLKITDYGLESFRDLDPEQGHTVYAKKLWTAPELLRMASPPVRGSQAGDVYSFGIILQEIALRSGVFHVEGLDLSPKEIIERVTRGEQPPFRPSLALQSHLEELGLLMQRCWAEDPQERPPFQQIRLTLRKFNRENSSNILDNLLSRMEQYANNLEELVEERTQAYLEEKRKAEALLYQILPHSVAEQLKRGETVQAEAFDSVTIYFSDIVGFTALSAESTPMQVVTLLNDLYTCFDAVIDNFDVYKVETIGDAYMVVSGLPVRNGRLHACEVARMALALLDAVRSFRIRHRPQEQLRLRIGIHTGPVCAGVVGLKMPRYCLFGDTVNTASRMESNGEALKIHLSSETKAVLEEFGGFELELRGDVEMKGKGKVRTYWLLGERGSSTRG

B1: TPP-11156 (antibody, human IgG1, lambda)
heavy: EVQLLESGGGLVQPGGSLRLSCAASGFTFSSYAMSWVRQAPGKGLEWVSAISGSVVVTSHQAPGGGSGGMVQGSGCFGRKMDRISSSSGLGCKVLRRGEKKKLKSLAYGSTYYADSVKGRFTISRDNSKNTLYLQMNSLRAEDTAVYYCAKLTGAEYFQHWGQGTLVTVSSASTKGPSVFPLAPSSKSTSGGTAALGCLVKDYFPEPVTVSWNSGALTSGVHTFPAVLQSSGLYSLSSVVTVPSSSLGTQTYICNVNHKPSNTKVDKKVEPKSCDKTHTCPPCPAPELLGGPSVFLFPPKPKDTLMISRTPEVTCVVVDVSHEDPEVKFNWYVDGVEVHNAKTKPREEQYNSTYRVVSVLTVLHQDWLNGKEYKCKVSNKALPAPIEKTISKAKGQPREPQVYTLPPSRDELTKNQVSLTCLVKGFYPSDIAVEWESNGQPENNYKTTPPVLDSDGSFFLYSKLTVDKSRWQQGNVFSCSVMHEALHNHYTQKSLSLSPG
light: QSVLTQPPSVSGAPGQRVTISCTGSSSNIGAGYDVHWYQQLPGTAPKLLIYGNSNRPSGVPDRFSGSKSGTSASLAITGLQAEDEADYYCQSYDSSLSGVVFGGGTKLTVLGQPKAAPSVTLFPPSSEELQANKATLVCLISDFYPGAVTVAWKADSSPVKAGVETTTPSKQSNNKYAASSYLSLTPEQWKSHRSYSCQVTHEGSTVEKTVAPTECS
B2: TPP-9465 (antibody)
heavy: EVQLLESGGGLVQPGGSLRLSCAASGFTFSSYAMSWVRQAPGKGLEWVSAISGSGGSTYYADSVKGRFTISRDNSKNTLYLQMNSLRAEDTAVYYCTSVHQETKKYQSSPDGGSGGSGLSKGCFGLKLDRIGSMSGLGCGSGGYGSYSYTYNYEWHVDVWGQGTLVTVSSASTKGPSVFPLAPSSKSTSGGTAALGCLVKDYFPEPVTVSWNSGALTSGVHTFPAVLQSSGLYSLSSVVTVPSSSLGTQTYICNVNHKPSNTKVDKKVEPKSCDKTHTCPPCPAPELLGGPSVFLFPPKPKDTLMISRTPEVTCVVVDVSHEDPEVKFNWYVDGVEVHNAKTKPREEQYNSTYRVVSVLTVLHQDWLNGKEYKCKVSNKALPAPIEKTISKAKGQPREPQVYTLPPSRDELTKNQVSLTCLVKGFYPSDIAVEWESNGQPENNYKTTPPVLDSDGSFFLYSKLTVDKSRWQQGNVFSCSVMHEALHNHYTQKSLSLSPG
light: B1 light
B3: TPP-12377 (antibody)
heavy: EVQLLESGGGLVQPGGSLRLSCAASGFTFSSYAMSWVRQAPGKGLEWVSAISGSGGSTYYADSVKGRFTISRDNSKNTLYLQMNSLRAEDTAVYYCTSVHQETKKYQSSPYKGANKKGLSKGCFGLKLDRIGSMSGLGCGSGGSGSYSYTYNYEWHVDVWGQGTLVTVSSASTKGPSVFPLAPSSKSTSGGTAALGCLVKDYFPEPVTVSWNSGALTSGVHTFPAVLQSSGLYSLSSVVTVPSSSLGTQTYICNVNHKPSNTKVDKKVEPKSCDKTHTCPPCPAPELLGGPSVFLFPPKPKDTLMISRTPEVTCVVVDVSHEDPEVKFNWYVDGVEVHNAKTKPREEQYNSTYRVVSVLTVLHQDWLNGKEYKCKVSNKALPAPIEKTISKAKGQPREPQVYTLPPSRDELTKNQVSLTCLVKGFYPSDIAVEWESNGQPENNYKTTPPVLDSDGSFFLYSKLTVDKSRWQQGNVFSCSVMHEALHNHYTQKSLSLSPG
light: B1 light
B4: TPP-12897 (antibody)
heavy: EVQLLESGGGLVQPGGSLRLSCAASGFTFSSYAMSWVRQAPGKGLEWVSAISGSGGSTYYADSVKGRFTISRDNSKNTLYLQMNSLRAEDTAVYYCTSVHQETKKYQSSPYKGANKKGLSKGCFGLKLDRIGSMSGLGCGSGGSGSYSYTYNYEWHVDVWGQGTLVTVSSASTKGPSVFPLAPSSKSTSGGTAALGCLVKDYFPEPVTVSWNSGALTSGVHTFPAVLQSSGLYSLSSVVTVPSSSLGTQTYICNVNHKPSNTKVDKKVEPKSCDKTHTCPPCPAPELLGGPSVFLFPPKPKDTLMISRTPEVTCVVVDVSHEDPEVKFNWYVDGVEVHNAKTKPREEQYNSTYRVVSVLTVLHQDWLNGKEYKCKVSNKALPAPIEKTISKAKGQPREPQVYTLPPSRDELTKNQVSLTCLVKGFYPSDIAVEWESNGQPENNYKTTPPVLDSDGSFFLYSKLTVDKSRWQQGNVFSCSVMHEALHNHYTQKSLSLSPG
light: B1 light with S98D
B5: TPP-5661 (antibody)
heavy: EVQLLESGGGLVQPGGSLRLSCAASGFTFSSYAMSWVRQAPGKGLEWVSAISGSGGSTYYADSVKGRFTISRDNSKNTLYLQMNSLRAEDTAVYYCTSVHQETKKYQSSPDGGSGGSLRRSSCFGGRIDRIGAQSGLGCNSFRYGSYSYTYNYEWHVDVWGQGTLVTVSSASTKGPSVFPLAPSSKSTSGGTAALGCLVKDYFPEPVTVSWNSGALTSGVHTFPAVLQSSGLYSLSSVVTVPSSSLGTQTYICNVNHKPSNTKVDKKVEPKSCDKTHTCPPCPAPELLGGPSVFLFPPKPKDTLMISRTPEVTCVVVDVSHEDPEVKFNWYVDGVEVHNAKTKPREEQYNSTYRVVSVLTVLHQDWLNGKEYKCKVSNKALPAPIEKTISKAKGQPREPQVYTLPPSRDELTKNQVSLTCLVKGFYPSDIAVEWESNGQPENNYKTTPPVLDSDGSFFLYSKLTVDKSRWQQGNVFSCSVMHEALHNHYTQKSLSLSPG
light: B1 light
B6: TPP-10992 (antibody, human IgG4 S228P, lambda)
heavy: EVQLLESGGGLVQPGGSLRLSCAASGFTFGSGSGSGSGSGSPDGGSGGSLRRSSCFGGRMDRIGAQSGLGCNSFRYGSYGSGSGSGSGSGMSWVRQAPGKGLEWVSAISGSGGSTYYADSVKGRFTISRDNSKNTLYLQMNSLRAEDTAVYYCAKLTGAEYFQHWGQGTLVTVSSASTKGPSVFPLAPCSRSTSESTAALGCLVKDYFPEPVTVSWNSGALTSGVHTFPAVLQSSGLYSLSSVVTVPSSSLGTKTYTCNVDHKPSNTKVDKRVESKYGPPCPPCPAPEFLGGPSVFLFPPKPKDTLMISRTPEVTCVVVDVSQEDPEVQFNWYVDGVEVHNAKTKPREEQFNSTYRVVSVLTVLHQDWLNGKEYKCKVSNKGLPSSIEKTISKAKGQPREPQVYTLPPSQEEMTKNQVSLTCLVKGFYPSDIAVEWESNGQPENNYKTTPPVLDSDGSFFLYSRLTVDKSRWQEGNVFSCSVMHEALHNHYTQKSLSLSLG
light: B1 light
B7: TPP-9902 (antibody)
heavy: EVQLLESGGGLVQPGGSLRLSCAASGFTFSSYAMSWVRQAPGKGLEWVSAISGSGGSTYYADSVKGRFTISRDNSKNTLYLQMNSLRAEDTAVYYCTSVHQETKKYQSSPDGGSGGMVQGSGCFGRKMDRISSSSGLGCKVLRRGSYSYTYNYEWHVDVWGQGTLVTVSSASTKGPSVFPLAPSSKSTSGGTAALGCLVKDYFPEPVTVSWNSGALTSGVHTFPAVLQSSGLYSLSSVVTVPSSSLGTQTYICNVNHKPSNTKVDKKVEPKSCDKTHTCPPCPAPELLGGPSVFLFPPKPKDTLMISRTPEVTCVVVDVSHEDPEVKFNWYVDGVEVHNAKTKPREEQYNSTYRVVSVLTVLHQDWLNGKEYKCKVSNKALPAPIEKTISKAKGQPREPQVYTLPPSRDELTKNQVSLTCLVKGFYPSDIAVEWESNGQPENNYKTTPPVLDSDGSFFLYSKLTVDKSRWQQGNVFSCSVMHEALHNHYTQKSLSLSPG
light: B1 light

Tests used:
Assay in all cases: cell-based or functional assay
[1] = target: T1, rat ANP receptor (NPR-A)
[2] = target: T2, rat CNP receptor (NPR-B)
[3] = target: T3, human NPRA (hNPRA)

Binder | EC50, fluorescence signal of rat NPR-A cGMP reporter CHO cell line (GCaMP6/CNGA2) [1] [µM] | EC50, luminescence signal of rat NPR-B cGMP reporter cell line [2] [nM] | also measured
B1 | 1.2 | – | EC50 on rNPRA reporter cells [1]: > 1 µM
B2 | – | 5.2 | –
B3 | – | 4.1 | –
B4 | – | 10 | –
B5 | 0.017 | – | log EC50, cGMP quantification assay, isolated compound sample (ics) on stable hNPRA-CHO k1 cells [3]: -8.8 log EC50; log EC50, cGMP quantification assay, purified compound sample (pcs) on stable hNPRA-CHO k1 cells [3]: -9.2 log EC50; log EC50, cGMP quantification assay, purified compound sample (pcs) on transient hNPRA-HEK293 cells [3]: -9 log EC50
B6 | 0.18 | – | –
B7 | 2.3 | – | EC50 on rNPRA reporter cells [1]: > 1 µM
